Columns and labels:
[1] = target: RsaA(723/3XPilin12), RsaA with a 3X tandemly repeated P. aeruginosa pilin epitope inserted at amino acid 723
[2] = target: RsaA(723/VP2C), RsaA with a 112 amino acid segment of the VP2 surface glycoprotein of infectious pancreatic necrosis virus inserted at amino acid 723
[3] = target: T1, RsaA, wild-type S-layer protein monomer of C. crescentus
T1 chain: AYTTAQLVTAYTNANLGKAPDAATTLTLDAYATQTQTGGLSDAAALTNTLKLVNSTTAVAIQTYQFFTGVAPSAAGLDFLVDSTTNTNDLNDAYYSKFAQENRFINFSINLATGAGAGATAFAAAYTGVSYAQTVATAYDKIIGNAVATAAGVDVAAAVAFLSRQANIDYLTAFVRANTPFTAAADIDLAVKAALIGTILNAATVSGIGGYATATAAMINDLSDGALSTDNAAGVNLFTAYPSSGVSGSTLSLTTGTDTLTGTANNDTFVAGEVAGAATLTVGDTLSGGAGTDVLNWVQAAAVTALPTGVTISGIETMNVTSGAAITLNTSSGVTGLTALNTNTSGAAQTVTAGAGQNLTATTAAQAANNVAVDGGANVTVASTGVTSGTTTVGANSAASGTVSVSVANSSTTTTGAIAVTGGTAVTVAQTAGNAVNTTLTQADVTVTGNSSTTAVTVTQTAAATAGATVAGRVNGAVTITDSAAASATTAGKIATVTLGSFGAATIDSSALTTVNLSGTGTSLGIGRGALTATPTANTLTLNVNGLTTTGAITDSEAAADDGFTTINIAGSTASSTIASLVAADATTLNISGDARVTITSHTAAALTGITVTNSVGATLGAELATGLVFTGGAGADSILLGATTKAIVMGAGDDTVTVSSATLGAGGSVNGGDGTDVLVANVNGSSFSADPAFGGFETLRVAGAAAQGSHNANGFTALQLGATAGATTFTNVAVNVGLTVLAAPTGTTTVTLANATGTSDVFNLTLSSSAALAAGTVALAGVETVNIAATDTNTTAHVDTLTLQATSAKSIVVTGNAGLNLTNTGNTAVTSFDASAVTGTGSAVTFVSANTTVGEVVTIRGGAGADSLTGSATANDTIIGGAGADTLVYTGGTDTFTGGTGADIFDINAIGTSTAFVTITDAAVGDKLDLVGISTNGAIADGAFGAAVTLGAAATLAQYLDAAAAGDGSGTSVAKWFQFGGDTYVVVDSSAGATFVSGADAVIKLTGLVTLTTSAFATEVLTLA

[4] = target: T2, RsaA(485/IHNVG20), full-length RsaA hybrid protein carrying the 20 amino acid IHNV-G peptide at amino acid 485
T2 chain: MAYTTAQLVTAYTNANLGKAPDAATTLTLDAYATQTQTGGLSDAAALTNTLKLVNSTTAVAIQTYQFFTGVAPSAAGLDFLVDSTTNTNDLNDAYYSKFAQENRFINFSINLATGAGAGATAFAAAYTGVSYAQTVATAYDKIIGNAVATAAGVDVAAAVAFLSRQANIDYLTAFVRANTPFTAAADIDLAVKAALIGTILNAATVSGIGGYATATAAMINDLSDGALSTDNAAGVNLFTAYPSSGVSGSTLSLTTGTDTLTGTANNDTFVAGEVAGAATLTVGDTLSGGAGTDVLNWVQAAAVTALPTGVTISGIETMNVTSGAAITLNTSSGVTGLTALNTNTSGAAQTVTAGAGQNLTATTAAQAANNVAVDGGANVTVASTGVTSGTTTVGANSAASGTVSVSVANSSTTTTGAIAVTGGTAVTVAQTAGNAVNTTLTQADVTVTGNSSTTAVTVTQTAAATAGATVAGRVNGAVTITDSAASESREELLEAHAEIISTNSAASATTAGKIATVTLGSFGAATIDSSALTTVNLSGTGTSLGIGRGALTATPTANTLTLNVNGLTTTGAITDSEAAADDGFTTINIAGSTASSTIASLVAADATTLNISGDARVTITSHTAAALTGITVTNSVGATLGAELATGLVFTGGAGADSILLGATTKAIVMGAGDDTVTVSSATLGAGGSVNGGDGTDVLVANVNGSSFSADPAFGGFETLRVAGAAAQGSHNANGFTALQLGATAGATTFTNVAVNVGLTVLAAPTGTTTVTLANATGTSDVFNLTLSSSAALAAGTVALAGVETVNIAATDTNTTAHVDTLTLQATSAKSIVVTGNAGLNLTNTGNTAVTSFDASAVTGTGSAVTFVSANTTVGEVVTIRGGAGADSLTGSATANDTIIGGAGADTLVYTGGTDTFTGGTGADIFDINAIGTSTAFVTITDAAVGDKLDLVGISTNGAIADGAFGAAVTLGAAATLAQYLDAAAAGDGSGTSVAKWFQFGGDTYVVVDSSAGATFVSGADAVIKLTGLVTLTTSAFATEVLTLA

B1: Sap (S-layer associated protease), native Caulobacter crescentus metalloprotease (protein)
chain: MCSQCERYGLNLHGDDVAPAVSGGEGPYAFVDADSRVGTVDGKKSLTVPEAALQLLRSEPGWSNQFLVPATVTYAFRATAPASMPSDTGGFSQFNAAQILQAEKALQAWSDVANITFVRVGQGTSGEAAYSDNASILFANFSTGSEGSAGFAYYPGNPAASSRSGDVWIKSTAGYNTNPTGSNYGGMVLVHELGHAIGIAHPSEYNASADDTLTYAVNATYYQDSRQYTVMSYFSEANTGGSFGGAYASSPLLDDIAAAQLAYGANMTTRTGDTVYGFNSTAGREWFAATSSSTRLVFAVWDAGGVDTLDFSGYRVAQTIDLRAGYFSSVGGLKGNVTIAMNAVIENAIGGSAADTINGNAVDNRLTGGAGADILDGGRGVDTAVFSGAYGNYTLTAATNGAWSVLDRVGTDATDTLANIEFLAFTDRTVTLVDSRVATAISNILRLQTFSASAEPLSKSLAASMAAGASHSDAIGQVSKTALSTSGVAVLAYQFFTGKTPTAAGMDYLVNPDGVNANNLNSAYYQSFNLENRYINFAVNLGKIGEGATKFLADYGGLSLFDATRKAYATIFGLTPTDDKVRALIDGRTDYFAAYGQDGPNGQGTKAAMVGWLMAEAGKADIGVYAKSAGAFFADQATKNVYGVDLIGVYAKPEYNLI
degradation of the hybrid protein in Sap+ JS4000 against Sap- JS4015 (SDS-PAGE of low-pH extracts) [1]: In all instances significant degradation of the hybrid full-length rsaA protein occurred in a wild-type host (JS4000) while none was detected in the Sap^- JS4015 strain
degradation of the hybrid protein in Sap+ JS4000 against Sap- JS4015 (SDS-PAGE of low-pH extracts) [2]: In all instances significant degradation of the hybrid full-length rsaA protein occurred in a wild-type host (JS4000) while none was detected in the Sap^- JS4015 strain
proteolytic cleavage (SDS-PAGE of low-pH extracts from Sap+ JS4000) [3]: Native RsaA (98 kDa) was not subjected to cleavage
proteolytic phenotype (cleavage of the hybrid protein; SDS-PAGE of low-pH extracts, complementation of Sap- JS4015 with the sap gene) [4]: When pBBR1MCS:Kmsap was introduced into JS4015, the proteolytic phenotype was restored

From patent US20050032194
